Broadly, the stoichiometry N is the number of molecules, sites or subunits per partner or assembly.

This is an account of results in PMC5004899, “Architecture of the caveolar coat complex” (Journal of Cell Science, 2016).

This data set concerns the molecule itself. The data set is described as follows: cross-linking; DSP cross-linking in live HeLa cells; purified 80S-CCC; partial reduction of DSP crosslinks by titration of DTT; western blots. Background: Immunoblotting shows a protein as a band on a membrane.

B1: cavin-1 (natural protein, human (endogenous in HeLa), UniProt Q6NZI2-1 1-390, looked up)
chain: MEDPTLYIVERPLPGYPDAEAPEPSSAGAQAAEEPSGAGSEELIKSDQVNGVLVLSLLDKIIGAVDQIQLTQAQLEERQAEMEGAVQSIQGELSKLGKAHATTSNTVSKLLEKVRKVSVNVKTVRGSLERQAGQIKKLEVNEAELLRRRNFKVMIYQDEVKLPAKLSISKSLKESEALPEKEGEELGEGERPEEDAAALELSSDEAVEVEEVIEESRAERIKRSGLRRVDDFKKAFSKEKMEKTKVRTRENLEKTRLKTKENLEKTRHTLEKRMNKLGTRLVPAERREKLKTSRDKLRKSFTPDHVVYARSKTAVYKVPPFTFHVKKIREGQVEVLKATEMVEVGADDDEGGAERGEAGDLRRGSSPDVHALLEITEESDAVLVDKSDSD
modifications: DSP-modified lysine residues (seven of 11 lysines in the HR1 domain, six of 17 in the HR2 domain; marked in Fig. 1D)
notes: human cavin-1 (PTRF), NP_036364.2; HR1 domain amino acids 49-163, HR2 domain amino acids 210-300; Detected with rabbit anti-PTRF (Abcam ab48824); also called PTRF; source: endogenous, HeLa lysate (cells DSP-cross-linked alive)
On to B1, for which the “stoichiometry N” value was 3.
